Test results from article PMC3099712.

Legend:
[1] = molecular target: GFP-tagged mouse IGFLR1 on HEK293T cells (mouse); assay: radioligand binding
[2] = molecular target: GFP-tagged human IGFLR1 on HEK293T cells (human); assay: radioligand binding

FLAG-mIGFL (mouse insulin growth factor-like protein), sequence (Q6B9Z0 24-140): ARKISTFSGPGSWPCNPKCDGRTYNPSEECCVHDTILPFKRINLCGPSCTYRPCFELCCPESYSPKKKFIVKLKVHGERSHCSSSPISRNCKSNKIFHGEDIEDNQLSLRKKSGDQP
FLAG-IGFL1 (human insulin growth factor-like family member 1), sequence (Q6UW32 24-110): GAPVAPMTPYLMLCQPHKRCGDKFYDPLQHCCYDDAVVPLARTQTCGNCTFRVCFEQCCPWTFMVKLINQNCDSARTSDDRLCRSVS

Kd [1] | Kd [2] | Substance
0.73 nM | – | FLAG-mIGFL (mouse insulin growth factor-like protein) (from UniProt Q6B9Z0 24-140) (ligand)
– | 0.31 nM | FLAG-IGFL1 (human insulin growth factor-like family member 1) (from UniProt Q6UW32 24-110) (ligand)
